Source: patent US20220251174A1

Molecular target: SARS-CoV-2 Spike protein (Wuhan-1 isolate) on VSV pseudovirus particles (SARS-CoV-2) (UniProt P0DTC2)
Assay: cell-based or functional assay

Substance	IC50 in pseudovirus assays
REGN10933 (benchmark, human IgG1) (antibody)	0.67 µg/mL
REGN10987 (benchmark, human IgG1) (antibody)	0.45 µg/mL
